Measured values from patent US20100204445A1.
Where a chain is given by its changes, count along the chain named. Names and notes keep the numbering of the source. Ends that are not written are not given here.

B1: recombinant fused protein in which a dockerin polypeptide with the 48th amino acid alanine (A) substituted with serine (S) was fused at the N-terminal of … (protein, not shown: large carriers; small tags and cut ends)
chain: MGLKGDVNNDGAIDALDIAALKKAILTQSTSNINLTNADMNNDGNIDSIDFAQLKVKLLN
modifications: not fully specified (C-terminus)
B2: recombinant JNK3 of which a wild-type dockerin was fused at the N-terminal (protein, not shown: large carriers; small tags and cut ends)
chain: B1 chain with S48A
modifications: not fully specified (C-terminus)
B3: recombinant JNK3 of which an I49T-substituted dockerin polypeptide is fused at the N-terminal (protein, not shown: large carriers; small tags and cut ends)
chain: B1 chain with S48A, I49T
B4: recombinant JNK3 of which an I49N-substituted dockerin polypeptide was fused at the N-terminal (protein, not shown: large carriers; small tags and cut ends)
chain: B1 chain with S48A, I49N
B5: recombinant JNK3 of which an L16T/I49T-substituted dockerin polypeptide is fused at the N-terminal (protein, not shown: large carriers; small tags and cut ends)
chain: B1 chain with L16T, S48A, I49T
B6: recombinant JNK3 of which an I49G-substituted dockerin polypeptide is fused at the N-terminal (protein, not shown: large carriers; small tags and cut ends)
chain: B1 chain with S48A, I49G
B7: recombinant JNK3 of which an I49S-substituted dockerin polypeptide is fused at the N-terminal (protein, not shown: large carriers; small tags and cut ends)
chain: B1 chain with S48A, I49S
B8: recombinant JNK3 of which an I49V-substituted dockerin polypeptide is fused at the N-terminal (protein, not shown: large carriers; small tags and cut ends)
chain: B1 chain with S48A, I49V
B9: recombinant JNK3 of which a wild-type dockerin was fused at the C-terminal (protein, not shown: large carriers; small tags and cut ends)
chain: B1 chain with S48A
B10: recombinant JNK3 of which an L16T/I49T-substituted dockerin polypeptide was fused at the C-terminal (protein, not shown: large carriers; small tags and cut ends)
chain: B1 chain with L16T, S48A, I49T
B11: recombinant JNK3 with an I49T-substituted dockerin polypeptide fused at the C-terminal (protein, not shown: large carriers; small tags and cut ends)
chain: B1 chain with S48A, I49T

What follows are binders tested against recombinant cohesin (CipA of Clostridium josui, BAA32429) (Clostridium josui) (assay: SPR as in Example 7, under the action of a chelating agent).

B1 showed a Kd of 5.2 nM.

These binders were tested against recombinant cohesin (CipA of Clostridium josui, BAA32429) (Clostridium josui) (assay: SPR (Biacore T-100), same format, 5 mM EGTA in running buffer).

In order of falling Kd:
1. B6  170 nM
2. B7  67 nM
3. B4  56 nM
4. B3  19 nM
5. B5  12 nM
6. B8  8.1 nM
7. B2  3.9 nM

In order of falling koff:
1. B4  0.089 s⁻¹
2. B6  0.05 s⁻¹
3. B7  0.048 s⁻¹
4. B5  0.029 s⁻¹
5. B3  0.023 s⁻¹
6. B8  0.011 s⁻¹
7. B2  0.0079 s⁻¹

In order of rising kon:
1. B5  250000 M⁻¹ s⁻¹
2. B6  300000 M⁻¹ s⁻¹
3. B7  710000 M⁻¹ s⁻¹
4. B3  1.2e+06 M⁻¹ s⁻¹
5. B8  1.4e+06 M⁻¹ s⁻¹
6. B4  1.6e+06 M⁻¹ s⁻¹
7. B2  2e+06 M⁻¹ s⁻¹

What follows are binders tested against recombinant cohesin (CipA of Clostridium josui, BAA32429) (Clostridium josui) (assay: batch elution of N-terminal fusion from cohesin carrier with 5 mM EGTA at 4 C, SDS-PAGE densitometry, 360 min set to 100).

In order of rising rate of eluted recombinant protein (%) at 5 min:
1. B2  11.5%
2. B8  25.3%
3. B5  55.2%
4. B4  65.9%
5. B3  66.5%
6. B7  74.7%
7. B6  100%

In order of rising rate of eluted recombinant protein (%) at 30 min:
1. B2  28.8%
2. B8  53.3%
3. B4  94.1%
4. B3  100%
5. B5  100%
6. B6  100%
7. B7  100%

In order of rising rate of eluted recombinant protein (%) at 60 min:
1. B2  39.6%
2. B8  68.2%
3. B3  100%
4. B4  100%
5. B5  100%
6. B6  100%
7. B7  100%

In order of falling rate of eluted recombinant protein (%) at 360 min:
1. B2  100%
2. B3  100%
3. B4  100%
4. B5  100%
5. B6  100%
6. B7  100%
7. B8  100%

Each binder was assayed against recombinant cohesin (CipA of Clostridium josui, BAA32429) (Clostridium josui) (assay: batch elution of C-terminal fusion from cohesin carrier with 5 mM EGTA at 4 C, SDS-PAGE densitometry, 360 min set to 100).

In order of falling rate of eluted recombinant protein (%) at 5 min:
1. B11  83.1%
2. B10  55.7%
3. B9  1.5%

In order of falling rate of eluted recombinant protein (%) at 30 min:
1. B10  100%
2. B11  100%
3. B9  10.5%

In order of rising rate of eluted recombinant protein (%) at 60 min:
1. B9  20.9%
2. B10  100%
3. B11  100%

In order of rising rate of eluted recombinant protein (%) at 360 min:
1. B9  100%
2. B10  100%
3. B11  100%

The binders below were run against recombinant cohesin (CipA of Clostridium josui, BAA32429) (Clostridium josui) (assay: SPR (Biacore T-100), fusion captured via anti-JNK3 antibody on Protein A chip, cohesin as analyte, +Ca2+ (1 mM CaCl2), no EGTA).

In order of rising Kd:
1. B6  2.2 nM
2. B5  3.2 nM
3. B4  3.7 nM
4. B3  3.8 nM
5. B7  4.5 nM
6. B2  6.5 nM
7. B8  7.6 nM

In order of rising koff:
1. B8  0.0033 s⁻¹
2. B7  0.0045 s⁻¹
3. B4  0.005 s⁻¹
4. B2  0.0053 s⁻¹
5. B3  0.006 s⁻¹
6. B6  0.0066 s⁻¹
7. B5  0.015 s⁻¹

In order of rising kon:
1. B8  430000 M⁻¹ s⁻¹
2. B2  810000 M⁻¹ s⁻¹
3. B7  1e+06 M⁻¹ s⁻¹
4. B4  1.3e+06 M⁻¹ s⁻¹
5. B3  1.6e+06 M⁻¹ s⁻¹
6. B6  3e+06 M⁻¹ s⁻¹
7. B5  4.9e+06 M⁻¹ s⁻¹
